Reference: the supplement of paper PMC7877785
± gives the uncertainty stated by the source.

Experiment: self-splicing fitness, log relative to wild type (ln ratio); higher = more splicing; Tetrahymena group I intron in knt gene, E. coli kanamycin selection, DiMSum; sequences stand for … in CUCUCU…GGAGGGAAAAGUUAUCAGGCAUGCACCUGGUAGCUAGUCUUUAAACCAAUAGAUUGCAUCGGUUUAAAAGGCAAGACCGUCAAAUUGCGGGAAAGGGGUCAACAGCCGUUCAGUACCAAGUCUCAGGGGAAACUUUGAGAUGGCCUUGCAAAGGGUAUGGUAAUAAGCUGACGGACAUGGUCCUAACCACGCAGCCAAGUCCUAAGUCAACAGAUCUUCUGUUGAUAUGGAUGCAGUUCACAGACUAAAUGUCGGUCGGGGAAGAUGUAUUCUUCUCAUAAGAUAUAGUCGGACCUCUCCUUAAUGGGAGCUAGCGGAUGAAGUGAUGCAACACUGGAGCCGCUGGGAACUAAUUUGUAUGCGAAAGUAUAUUGAUUAGUUUUGGAGUACUCGUGGUCG
Procedure, shortened: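 Colonies from six replicate transformations of E. coli BL21(DE3) were pooled and amplicon-sequenced on an Illumina HiSeq 2500. The library placed an intron with all eight P1ex-region nucleotides randomised inside the knt kanamycin-resistance gene on pET-22b(+), and cells grew overnight at 37°C or 30°C on LB agar with or without 25 μg/mL kanamycin (plus 100 μg/mL carbenicillin, 50 μM IPTG, 0.2% rhamnose). Fitness is the DiMSum error-weighted combination of wild-type-normalised replicate fold changes, kanamycin versus none.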

Sequence	self-splicing fitness (ln) (30 °C)	self-splicing fitness (ln) (37 °C)
GACGAGCAAUAUUACGAUGA	-4.01 ± 0.39	-2.14 ± 0.2
AAUAAGCAAUAUUACGAGAC	-3.14 ± 0.47	-1.18 ± 0.23
CCUGAGCAAUAUUACGUGCG	-3.69 ± 0.22	-1.04 ± 0.16
ACCCAGCAAUAUUACGAGGC	-2.72 ± 0.1	-0.981 ± 0.089
AAAAAGCAAUAUUACGGUAC	-3.24 ± 0.11	-1.76 ± 0.094
CCAUAGCAAUAUUACGGUGG	-3.66 ± 0.13	-3.4 ± 0.18
UUCCAGCAAUAUUACGUAAU	-2.36 ± 0.11	-0.639 ± 0.12
CAAGAGCAAUAUUACGCCGC	-2.67 ± 0.25	-1.99 ± 0.26
UCACAGCAAUAUUACGUCUG	-3.02 ± 0.13	-0.735 ± 0.11
GUAGAGCAAUAUUACGAAAG	-1.56 ± 0.32	–
UCAAAGCAAUAUUACGUUCU	-3.76 ± 0.26	-2.87 ± 0.22
UCGAAGCAAUAUUACGGAUA	-1.08 ± 0.15	-1.15 ± 0.19
AUCGAGCAAUAUUACGUCUG	-3.46 ± 0.34	-1.43 ± 0.19
GUCUAGCAAUAUUACGCUAU	-1.54 ± 0.11	-0.228 ± 0.1
GCCAAGCAAUAUUACGAUUU	-2.95 ± 0.096	-1.15 ± 0.09
GGUUAGCAAUAUUACGCACU	-2.48 ± 0.28	-2.32 ± 0.25
GAACAGCAAUAUUACGUCCC	-1.98 ± 0.16	-1.25 ± 0.19
GAGUAGCAAUAUUACGCGCC	-1.42 ± 0.3	-0.361 ± 0.29
CCCAAGCAAUAUUACGGCGC	–	-2.73 ± 0.25
GAUCAGCAAUAUUACGGCUC	0.00813 ± 0.1	0.687 ± 0.12
CAGUAGCAAUAUUACGUCAU	-3.37 ± 0.22	-2.4 ± 0.26
AAUUAGCAAUAUUACGGGUG	-1.04 ± 0.066	-0.54 ± 0.083
CCAUAGCAAUAUUACGUACG	-0.658 ± 0.07	0.351 ± 0.086
CCGGAGCAAUAUUACGUACG	-0.407 ± 0.14	-0.609 ± 0.18
CAAAAGCAAUAUUACGCGCG	-0.71 ± 0.082	-0.59 ± 0.09

Sequence	self-splicing fitness (ln) (30 °C)	self-splicing fitness (ln) (37 °C)
AACCAGCAAUAUUACGGCUG	-3.63 ± 0.14	-3.05 ± 0.16
CCAUAGCAAUAUUACGACUA	–	-1.71 ± 0.37
UAUAAGCAAUAUUACGGCUA	-0.234 ± 0.092	-0.126 ± 0.13
UGAAAGCAAUAUUACGACGC	-2.04 ± 0.19	0.0256 ± 0.17
CACUAGCAAUAUUACGUCAG	-0.817 ± 0.062	0.566 ± 0.071
CUAUAGCAAUAUUACGCAUG	-2.02 ± 0.093	-0.942 ± 0.095
UAUCAGCAAUAUUACGAUGU	-0.816 ± 0.072	-0.0178 ± 0.11
CACUAGCAAUAUUACGCCGU	-1.95 ± 0.35	-1.18 ± 0.35
ACGGAGCAAUAUUACGCUGU	–	-2.56 ± 0.25
AACCAGCAAUAUUACGUAGG	-2.67 ± 0.089	-1.79 ± 0.099
UCCUAGCAAUAUUACGGACU	-3.59 ± 0.24	-2.39 ± 0.22
ACGCAGCAAUAUUACGAUAU	-2.42 ± 0.096	-1.02 ± 0.12
ACCAAGCAAUAUUACGGUGA	-1.68 ± 0.1	-1.29 ± 0.083
CAUUAGCAAUAUUACGUUGU	-3.95 ± 0.23	-2.75 ± 0.22
AAGAAGCAAUAUUACGGGAC	-2.85 ± 0.18	-2.63 ± 0.44
CAACAGCAAUAUUACGCUAU	-3.29 ± 0.17	-2.25 ± 0.13
GAUCAGCAAUAUUACGCCUG	-0.866 ± 0.17	0.935 ± 0.19
CAAAAGCAAUAUUACGGAAA	-2.67 ± 0.5	-2.08 ± 0.3
CAGGAGCAAUAUUACGCUCG	-3.55 ± 0.34	-1.37 ± 0.33
UUGCAGCAAUAUUACGGUUC	-4.6 ± 0.27	-1.67 ± 0.18
UGUAAGCAAUAUUACGUGGU	-3.15 ± 0.13	-3.76 ± 0.27
GCACAGCAAUAUUACGUAGC	-2.19 ± 0.089	-1.64 ± 0.12
AUGUAGCAAUAUUACGUGAG	-0.927 ± 0.15	-0.0873 ± 0.21
GUACAGCAAUAUUACGCCUU	-1.23 ± 0.095	-0.531 ± 0.11
CGGAAGCAAUAUUACGGAUC	-3.97 ± 0.37	-2.04 ± 0.27

Sequence	self-splicing fitness (ln) (30 °C)	self-splicing fitness (ln) (37 °C)
CCGUAGCAAUAUUACGAGUU	-3.11 ± 0.15	-3.07 ± 0.18
AGACAGCAAUAUUACGAAGU	-3.47 ± 0.14	-2.26 ± 0.15
CGUGAGCAAUAUUACGGAGG	-2.69 ± 0.17	-0.9 ± 0.14
GUACAGCAAUAUUACGCGUC	-3.1 ± 0.21	-0.709 ± 0.14
GGUAAGCAAUAUUACGUCAC	-2.85 ± 0.24	-2.04 ± 0.23
AGGGAGCAAUAUUACGGAUA	-3.15 ± 0.31	–
CGGAAGCAAUAUUACGAGUU	-3.29 ± 0.2	-2.49 ± 0.2
AUAAAGCAAUAUUACGGAUA	-1.7 ± 0.11	-0.75 ± 0.11
UGAGAGCAAUAUUACGUGUA	-2.07 ± 0.13	–
UACUAGCAAUAUUACGUGAA	-2.19 ± 0.11	-1.18 ± 0.13
AGUGAGCAAUAUUACGGGAU	-3.44 ± 0.26	-1.7 ± 0.29
UUCUAGCAAUAUUACGUUAG	-3.63 ± 0.29	-2.67 ± 0.37
CCAAAGCAAUAUUACGGGAU	-3.6 ± 0.15	-2.37 ± 0.14
UAGUAGCAAUAUUACGAUCC	-3.16 ± 0.45	-2.22 ± 0.4
UAGAAGCAAUAUUACGCGCU	-1.28 ± 0.16	-1.85 ± 0.17
AUUGAGCAAUAUUACGCACC	-1.98 ± 0.3	-1.84 ± 0.43
AAUUAGCAAUAUUACGAGGA	-2.64 ± 0.26	-0.851 ± 0.18
AGAUAGCAAUAUUACGAAAG	-2.68 ± 0.2	-1.23 ± 0.21
ACUCAGCAAUAUUACGCAUU	-0.878 ± 0.049	-0.294 ± 0.06
AAGGAGCAAUAUUACGUCGC	–	-1.49 ± 0.35
AAACAGCAAUAUUACGCGGG	-2.69 ± 0.097	-0.988 ± 0.073
AAUGAGCAAUAUUACGCGAG	-2.49 ± 0.16	-1.46 ± 0.14
CUACAGCAAUAUUACGUAGU	-3.43 ± 0.14	-2.49 ± 0.2
CCCCAGCAAUAUUACGGUGC	-3.88 ± 0.19	-2.73 ± 0.18
UCUUAGCAAUAUUACGUCUU	-3.21 ± 0.32	-3 ± 0.27

Sequence	self-splicing fitness (ln) (30 °C)	self-splicing fitness (ln) (37 °C)
CUAGAGCAAUAUUACGUUAA	-3.73 ± 0.24	-1.89 ± 0.28
UGUGAGCAAUAUUACGCAGA	-2.79 ± 0.29	-1.83 ± 0.48
AGGCAGCAAUAUUACGAGUU	-1.69 ± 0.11	-0.885 ± 0.1
ACUCAGCAAUAUUACGCAUA	-1.35 ± 0.082	-0.543 ± 0.094
GUGCAGCAAUAUUACGACUU	-0.219 ± 0.087	0.408 ± 0.093
CUGCAGCAAUAUUACGUAUC	-4.37 ± 0.19	-2.73 ± 0.18
AAAGAGCAAUAUUACGAGAC	-3.51 ± 0.35	-2.11 ± 0.27
GACGAGCAAUAUUACGGAGG	-3.68 ± 0.26	-2.97 ± 0.35
ACCAAGCAAUAUUACGAAUA	-2.69 ± 0.2	-2.1 ± 0.16
GAGAAGCAAUAUUACGUGGC	-3.59 ± 0.17	-0.933 ± 0.11
AGACAGCAAUAUUACGCAGA	-2.56 ± 0.27	-1.38 ± 0.2
CACCAGCAAUAUUACGGAGA	-1.66 ± 0.11	-2.16 ± 0.14
ACGGAGCAAUAUUACGAGCG	-2.76 ± 0.28	-1.59 ± 0.2
AAUGAGCAAUAUUACGAGAU	-3.92 ± 0.21	-2.23 ± 0.13
UCUGAGCAAUAUUACGAGUU	-2.13 ± 0.25	–
AACGAGCAAUAUUACGUAAC	-2.83 ± 0.2	-1.83 ± 0.44
UGAUAGCAAUAUUACGCCAA	-3.37 ± 0.27	-1.85 ± 0.15
AGGAAGCAAUAUUACGAACA	-1.85 ± 0.14	-0.21 ± 0.2
CCGUAGCAAUAUUACGUGUG	-2.36 ± 0.095	-1.06 ± 0.082
AAACAGCAAUAUUACGGACC	-1.94 ± 0.078	-1.08 ± 0.095
UGCCAGCAAUAUUACGUUGU	-3.21 ± 0.12	-2.86 ± 0.18
GACUAGCAAUAUUACGCGAC	-1.59 ± 0.28	-0.817 ± 0.27
